# Assay results: the supplement of paper PMC12764529
# ± gives the half width of the 95% confidence interval.
# Experiments:
# [1] = folding stability dG unfold from chymotrypsin proteolysis; higher = more stable
# Procedure, shortened: (§1)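 Digests were run with trypsin and chymotrypsin at 11 concentrations in threefold dilutions, plus a no-protease condition, on designed mini-proteins in a PA-tagged cDNA display construct. The mini-proteins were under 80 residues, had no cysteine, and were kept only when AlphaFold2 dimer inter-PAE was above 15. After sequencing, Bayesian fitting of the counts gave K50, from which unfolding free energy was derived against a sequence-predicted unfolded-state K50 and a shared folded-state K50, per protease or combined.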
# [2] = folding stability dG unfold from trypsin proteolysis; higher = more stable
# Procedure, shortened: as §1
# [3] = folding stability dG unfold (combined trypsin and chymotrypsin); higher = more stable
# Procedure, shortened: as §1
Sequence,folding stability dG unfold [1] [kcal/mol],folding stability dG unfold [2] [kcal/mol],folding stability dG unfold [3] [kcal/mol]
SAETVTFRVGDVEIVARRLPDGYVVVTEKVPEEYPEAELVLSLVRVYPDGTVEVESRLYRIDPETGVIGSAG [r14_724_TrMRF],2.67 ± 0.053,2.12 ± 0.049,2.48 ± 0.17
SAEVELKPDEELEFEFPDSQVKISYVPGTGVITTTTTFTTPDGTVVYKTTTIKKEGKEVTSTTVSLAEASSA [r9_881_JUSTAS],1.52 ± 0.067,0.389 ± 0.054,1.17 ± 0.12
SAEVRPDEVLRIEVRLRVGDVEFTAEAEIPAGLSEEEIREAVERIREEAERLAERLRRLPPLRPPEELLSAG [r14_70_TrMRF],2.96 ± 0.14,1.63 ± 0.086,2.64 ± 0.43
SAEVRTVTDANGTQRTVTKTPDGTETVTTRPVPAPPPPPTVTVEVEYDAENGTLTVRLPDGSKLEFTFEDSA [r9_56_TrROS_Hall],0.982 ± 0.046,-0.118 ± 0.23,0.742 ± 0.26
SAEVRVEIVEVDEERGVIRIEITVPEDLPEEEILEELARRLEELARERGYEVRIERREDGTYRIEIRFPSAG [r14_865_TrROS_Hall],4.26 ± 0.071,4.18 ± 0.16,4.25 ± 0.11
SAEVVIVIEPGMTEEQVRARLKAALEEALRKGKKVKKIVVKSEEAARRIRDLLKELGVPEEDVEVVLLPSAG [r14_589_TrROS_Hall],3.45 ± 0.17,4.92 ± 0.51,4.93 ± 0.36
SAEYTPVGPNEDAEVWEVPNLGKLFTIDPKDDVVEITEVHFDDGDLSPHPHTVRVDVPEEDRDRLRDLLSAG [r14_245_TrMRF],-1.11 ± 0.58,0.0643 ± 0.06,-0.213 ± 0.14
SAGAEVEVVELTDEEIEALAKELNPDVTIEVVVVRVPPPPEKVEVRDPETGETVTLTVTPDGEIRAEKSAGG [r19_70_TrROS_Hall],-0.235 ± 0.16,0.624 ± 0.091,0.0774 ± 0.35
SAGAKVEIEFEGNKVTAKIEFGEGTVTVEGEVKLLPDGSALFKPKIYKDGKKIGEFTVLLDLPEGAEVLSAG [r5_221_TrMRF],1.95 ± 0.057,1.37 ± 0.062,1.84 ± 0.16
SAGAMLTLELTVEADSPEEAIERAKEIAKELIKKEYPELSKNTKIEKITAEPTPGPEVKVTITIKIDPGSAG [r5_320_JUSTAS],3.61 ± 0.18,4.42 ± 0.17,4.32 ± 0.22
SAGAMPPVVEVAPVEGEGLLRVTVPVPTSDVVRVTVDLGDRRLEYTLPRDASLEVSTADAEVRVAVELVSAG [r14_96_JUSTAS],0.639 ± 0.1,0.5 ± 0.031,0.638 ± 0.056
SAGAMVTHTITVKIDPSELDKLEEILEKIKNSGPVKAIEPVSFEPGTGVYTVKVTADPATIKLVEEALKSAG [r5_193_JUSTAS],4.14 ± 0.062,4.51 ± 0.28,4.24 ± 0.069
SAGARIVPIKINLKWNPDNGQLEVPIEMYVNNHPVEMEARFDPEDPGKIEFEITYPGNGQEIRASIPLPSAG [r14_178_TrROS],-0.0473 ± 0.31,0.951 ± 0.098,0.467 ± 0.26
SAGATATPPAVRVATARLPLPFGTGTEVTVTTYSDGSATVTARFPDGVVATAFVSPDGSAVVTVAPAGGSAG [r5_168_TrMRF],2.955 ± 0.024,0.992 ± 0.064,2.41 ± 0.061
SAGATPTTLSFTDPEGKKIANVTVTVLPGGRQEASITNSDSNESYTAEYDPATGTWTLTFPDGTTLTVGSAG [r5_809_JUSTAS],1.75 ± 0.032,1.15 ± 0.039,1.58 ± 0.059
SAGATTTTTTTNPADDTTVTTTTTTTGNTSTVTSTSTSGSTSTLTTTTVTFTSPTTTTTTTTTTPVPSSAGG [r19_292_JUSTAS],-0.45 ± 0.22,0.679 ± 0.03,0.264 ± 0.074
SAGAVELPPGVAAVERDPETGVVTATYPDGTVTRYTVSTEWDPTVGRTRPRVTVEVWSPDSRISTRDLPSAG [r5_109_JUSTAS],0.799 ± 0.13,0.119 ± 0.31,0.527 ± 0.12
SAGAVRPDEPVTVTVTVEVDPETGFVRVTFDAAAPDGITVEALIPPDGPVLVRVRRPGSRETVEVVLPASAG [r5_55_TrMRF],3.31 ± 0.045,2.57 ± 0.13,3.06 ± 0.072
SAGDAEEIAKKIEEAAREEFAARLGYPDLEILKVEVLEVDPVTGRVRVRVTVRLPDGRLLEAEFEVPVASAG [r5_20_TrMRF],3.41 ± 0.06,3.83 ± 0.06,3.65 ± 0.065
SAGDAVRIPIRFPNGMQIYSIEINPDENTIKIKIYDPNGYRKFEWTFPVKDPNGDPKLVGKIKFYMRPPSAG [r5_434_TrROS],2.61 ± 0.16,2.01 ± 0.069,2.31 ± 0.23
SAGDFLKNLPPGIKRWRPVASDPDGHFVFVFKYKTPDRPRYMVIQFPPNGRIQDIHIFPPDEADKAVNKSAG [r5_73_TrROS],2.04 ± 0.23,0.72 ± 0.073,1.52 ± 0.25

Sequence,folding stability dG unfold [1] [kcal/mol],folding stability dG unfold [2] [kcal/mol],folding stability dG unfold [3] [kcal/mol]
SAGDGDKMRGEHEREDPNGKKREVTHEMKVQPPPVPKPKIELPADDIDEIDPDNGTLRNPGNGKPFPIGSAG [r5_807_TrROS],-0.465 ± 0.17,0.0244 ± 0.15,-0.31 ± 0.41
SAGDNYREVEYTLKLKNPKGERKLKVKVYYPKGGMFIKIEWPDNGRKIDIPFKSPEDAEETIKDLLDKLSAG [r5_480_TrROS],2.25 ± 0.13,1.71 ± 0.059,2.13 ± 0.22
SAGDQTITIKIPNAPPGSRVQIMLFDPGKIKGFHEIDPDDPKEVEIKIELPPYTIMIYVADGNVFPIPISAG [r5_646_TrROS],2.82 ± 0.059,1.94 ± 0.12,2.46 ± 0.21
SAGDRIRITMPFDDLRKIMDEIGYPPEQMTAEEFADRLAEHFPGVKVDIEMDREDGYFTVEIELPPGMKSAG [r5_264_TrROS],1.43 ± 0.041,1.43 ± 0.062,1.42 ± 0.18
SAGDSIEIMVMVKTPEEAKKLADEIAQILPGNGLNIEITIMPMEELMKMFMEMTKPDPDGEYRRVRMFSAGG [r19_187_TrROS],1.37 ± 0.13,1.07 ± 0.053,1.3 ± 0.14
SAGDSVVIPFRLPPENLSPEELLEWIIDEVKEAAKAGLPHKVTIQVPYPGKPWYITIDPKNGEIEIVPSAGG [r19_204_TrROS],1.66 ± 0.085,1.04 ± 0.088,1.52 ± 0.15
SAGDTISIMIPPGMSGERAVNQIKYIAREQKENGKKRKITIWMPDPMRARFIKKALDEKGIPIEIEFWSAGG [r19_268_TrROS],0.766 ± 0.11,1.24 ± 0.049,1 ± 0.1
SAGDVKVITIKNPDGWQASIALNEDGTVYLMFNSPDQFLDLIEDLGFPITSVEMHPNGMMIFTIELPPSAGG [r19_257_TrROS],4.26 ± 0.17,2.27 ± 0.061,3.41 ± 0.18
SAGEEKEAKALAEQYAAEFAPKLGMKYEVPEVKVEKDEKTGKITVTVTVKFTFPEPRTVTKKFTIVVPKSAG [r5_381_JUSTAS],1.61 ± 0.11,2.4 ± 0.14,2.14 ± 0.27
SAGEERTVRVEIEIVVKTEEELEALKALFPNAEATRNEDGLLTLRLTIEVRVAPPVVVRDPETNELLELSAG [r5_129_TrROS_Hall],2.42 ± 0.049,2.56 ± 0.088,2.46 ± 0.11
SAGEFEVLEVREVDGRLVVRLALPDKPEVVTIVLERHPDGSVRALIEAEGEAADRIVEALPELDEVVVASAG [r5_933_TrMRF],2.64 ± 0.11,1.9 ± 0.036,2.46 ± 0.15
SAGEIAEYIAEYLAQEPGFQDVEVNIKITDIEPPPNGYMYHKIDIHVRVRNPDDGKPREVNFDITFPMPSAG [r5_176_TrROS],1.83 ± 0.068,1.1 ± 0.084,1.7 ± 0.17
SAGEIKIEIKKNKNGKLTIRITVKKKDGEEKEIEIEVPENMTAEELAKELEKKGFEITEIKSIEELLKSAGG [r19_263_TrROS_Hall],3.83 ± 0.25,3.89 ± 0.34,3.98 ± 0.6
SAGEKEVIEIEVRVTVVRRLPEDLSEEQRKALEDELEVEEVTVRVRFDLDTGRIYVEFEDGSRLEFELPSAG [r5_701_TrROS_Hall],3.37 ± 0.066,2.67 ± 0.054,3.16 ± 0.1
SAGEKKIKIEIKEIKPHENGYLSIKAKAYLEDGKKVAEVYEPYPPNLSLEELIEKVIERLEKEVKEKGESAG [r5_697_TrMRF],-0.207 ± 0.18,0.445 ± 0.039,0.22 ± 0.21
SAGEKKLTEEEIKKLVEELLKKLKPGEKEKVTLEIELTLEDGRKVKIRITVEVKDGKLVVKIEVEELPSAGG [r19_220_TrROS_Hall],3.64 ± 0.52,3.65 ± 0.27,3.68 ± 0.46
SAGELKITIAVFRPVEKDENGKEVKVELVEVKTITISKEDLTEEEILKLAEELKKKFPNTVILVTIEPSAGG [r19_369_TrROS_Hall],2.93 ± 0.19,2.59 ± 0.23,2.91 ± 0.19
SAGELKPGQIVVRTIEIDLPEEDEELREAIERGELIELELEDGSRVLMRVERKDGKLRITEVVILPRPESAG [r5_223_TrROS_Hall],3.16 ± 0.029,1.66 ± 0.043,2.73 ± 0.062
SAGEPEKVTITLVDEETGVVITIEIDKETKKITITVESEEERERARELAERLAKELEEAGIKVEILPPSAGG [r19_354_TrROS_Hall],2.26 ± 0.18,2.91 ± 0.14,2.73 ± 0.16
SAGEVELKIVLPKEEIEKILEALRKLAEEAGLEVEVEKIEKKEDGYYVITVTVKFKETEKEIKIEIIIPSAG [r5_41_TrROS_Hall],2.55 ± 0.12,3 ± 0.51,2.69 ± 0.31
SAGEVELTEDGSLKITETIEVNGLLFKVTVTIDENGNISVSIEKVEVLPPPPPVEIKLEDEEAKKKALKSAG [r5_715_TrROS_Hall],1.61 ± 0.14,0.26 ± 0.28,1.16 ± 0.69
